Test results: US11203633B2, “Polynucleotides encoding antibodies or antigen binding fragments thereof that bind pseudomonas perv” (priority 2011, dated 2021)
Numbering of substitutions follows the chain as printed.

How the values were obtained:
[1] = tested on: luminescent P. aeruginosa serogroup 05 strain (PAO1.lux); assay: Opsonophagocytic killing (OPK) assay, PAO1.lux; format: cell-based, Pseudomonas aeruginosa; settings: FIG. 11 A-Q
Method: This example describes the evaluation of prioritized human IgG1 antibodies to promote OPK of P. aeruginosa. […] OPK assays were performed as described in (DiGiandomenico, A., et al., Infect Immun 72, 7012-7021 (2004)), with modifications. Briefly, assays were performed in 96-well plates using 0.025 ml of each OPK component; P. aeruginosa strains; diluted baby rabbit serum; differentiated HL-60 cells; and monoclonal antibody. In some OPK assays, luminescent P. aeruginosa strains, which were constructed as described (Choi, K. H., et al., Nat Methods 2, 443-448 (2005)), were used. Luminescent OPK assays were performed as described above but with determination of relative luciferase units (RLUs) using a Perkin Elmer ENVISION Multilabel plate reader (Perkin Elmer).

[2] = tested on: P. aeruginosa strains (PAO1, 33356, 6294, 6077, 6206, PA103A); assay: Acute pneumonia model in mice, survival; format: in vivo, Pseudomonas aeruginosa; settings: for protection in vivo: strain 6077 (1×10^6 CFU/animal) intranasal, mAbs IP 24 hours prior, 11A6, 3G5, V2L7 5 or 1 mg/kg, 29D2 and V2L2 25 mg/kg, FIG. 13E-G
Method: (§1) Antibodies or PBS were administered 24 hours before infection in each model. P. aeruginosa acute pneumonia, keratitis, and thermal injury infection models were performed as described (DiGiandomenico, A., et al., Proc Natl Acad Sci USA 104, 4624-4629 (2007)), with modifications. In the acute pneumonia model, BALB/c mice (The Jackson Laboratory) were infected with P. aeruginosa strains suspended in a 0.05 ml inoculum. In the thermal injury model, CF-1 mice (Charles River) received a 10% total body surface area burn with a metal brand heated to 92° C. for 10 seconds. Animals were infected subcutaneously with P. aeruginosa strain 6077 at the indicated dose. For organ burden experiments, acute pneumonia was induced in mice followed by harvesting of lungs, spleens, and kidneys 24 hours post-infection for determination of CFU.
The in vivo effect of administration of an anti-PcrV antibodies was studied in mice using an acute pneumonia model. Groups of mice were treated with either increasing concentrations of the V2L2 antibody, a positive control anti-PcrV antibody (mAb166), or a negative control (R347), as shown in FIG. 13 (A-B). Groups of mice were also treated with either increasing concentrations of the V2L2 antibody, the PcrV antibody PcrV-02, or a negative control (R347), as shown in FIG. 13 (C-D). Twenty-four hours after treatment, all mice were infected with 5×10^7 CFU (C) Pseudomonas aeruginosa 6294 (06) or (D) PA103A (O11).
Groups of mice were treated with either increasing concentrations of the 11A6, 3G5 or V2L7, the same concentrations of 29D2, 1F3, 1E6, V2L2, LE10, SH3, 4A8, 2H3, or 21F1, increasing concentrations of the 29D2, increasing concentrations of the V2L2, the PcrV antibody PcrV-02, or a negative control (R347), as shown in FIG. 13 (E-H). Mice were injected intraperitoneally (IP) with mAbs 24 hours prior to intranasal infection with Pseudomonas strain 6077 (1×10^6 CFU/animal).

[3] = tested on: P. aeruginosa strains (PAO1, 33356, 6294, 6077, 6206); assay: Acute pneumonia model in mice, organ burden (CFU in lung, spleen, kidneys); format: in vivo, Pseudomonas aeruginosa
Method: as §1
Organ burden of Pseudomonas-infected mice was also studied in response to administration of V2L2. FIG. 14 (A) Mice were treated with either 1 mg/kg R347 (control), or 1 mg/kg, 0.2 mg/kg, or 0.07 mg/kg of V2L2 and then were infected intranasally with 1.2×10^6 cfu of Pseudomonas 6206. FIG. 14 (B) Mice were also treated with either 15 mg/kg R347 (negative control); 15.0 mg/kg, 5.0 mg/kg, or 1.0 mg/kg mAb166 (positive control); or 5.0 mg/kg, 1.0 mg/kg, or 0.2 mg/kg V2L2 and then were infected intranasally with 5.5×10^6 cfu of Pseudomonas 6206.
The in vivo effect of combination administration of anti-Psl and anti-PcrV binding domains was further studied in mice using the antibodies V2L2 and WapR-004 (RAD). Groups of mice were treated with R347 (2.1 mg/kg—negative control), V2L2 (0.1 mg/kg), W4-RAD (0.5 mg/kg), or V2L2/W4 combination (either 0.1, 0.5, 1.0 or 2.0 mg/kg each). Twenty-four hours post-administration of antibody, all mice were infected with an inoculum containing 5.25×10^5 cfu 6206 (O11-ExoU+). Twenty-four hours post infection, lungs, spleens, and kidneys were harvested, homogenized, and plated for colony forming unit (CFU) identification per gram of tissue.

[4] = tested on: P. aeruginosa strains 6206 and 6294; assay: Acute pneumonia model in mice, histological examination of lung tissue; format: in vivo, Pseudomonas aeruginosa
[5] = tested on: P. aeruginosa (6077 exoU+; 6206) lysis of rabbit red blood cells; assay: Rabbit red blood cell (RBC) lysis inhibition assay; format: cell-based, Pseudomonas aeruginosa; settings: for prevention of RBC lysis: strain 6077, FIG. 12D-E
Method: Percent inhibition of cytotoxicity analysis was analysed for the parental V2L2 mAb, mAb166 (positive control) and R347 (negative control), where the antibodies were administered to cultured broncho-epithelial cell line A549 combined with log-phase P. aeruginosa strain 6077 (exoU+) at a MOI of approximately 10. A549 lysis was assayed by measuring released lactate dehydrogenase (LDH) activity and lysis in the presence of mAbs was compared to wells without mAb to determine percent inhibition. The V2L2 mAb, mAb166 (positive control) and R347 (negative control) were evaluated for their ability to prevent lysis of RBCs, where the antibodies were mixed with log-phase P. aeruginosa 6077 (exoU^+) and washed rabbit red blood cells (RBCs) and incubated for 2 hours at 37°. Intact RBCs were pelleted and the extent of lysis determined by measuring the OD405 of the cell-free supernatant. Lysis in the presence of anti-PcrV mAbs was compared to wells without mAb to determine percent inhibition. The positive control antibody, mAb166, is a previously characterized anti-PcrV antibody (J Infect Dis. 186: 64-73 (2002), Crit Care Med. 40: 2320-2326 (2012)).

[6] = strain 6206 intranasal, V2L2 0.07-5 mg/kg, FIG. 14A-B
[7] = Table 5, 6206 5.25×10^5 cfu, R347 2.1 mg/kg, V2L2 0.1 mg/kg, WapR-004 0.5 mg/kg
[8] = Table 6A, strain 6294 1.33×10^7 CFU, 0.2 mg/kg (combination 0.1 mg/kg ea)
[9] = Table 6B, strain 6294 1.7×10^7 CFU, 0.2 mg/kg (combination 0.1 mg/kg ea)
[10] = Table 7, strain 6206 9.25×10^5 CFU, 0.2 mg/kg (combination 0.1 mg/kg ea)

B1: Psl0225: lead optimized anti-Psl clone; VH SEQ ID NO:290, VL SEQ ID NO:291 (antibody, V domains shown)
VH: QVQLQESGPGLVKPSETLSLTCTVSGGSISPYYWTWIRQPPGKGLELIGYIHSSGYTDYNPSLKSRVTISGDTSKKQFSLKLSSVTAADTAVYYCARAMDIEPHALDIWGQGTMVTVSS
VL: DIQLTQSPSSLSASVGDRVTITCRASQSIRSHLNWYQQKPGKAPKLLIYGASNLQSGVPSRFSGSGSGTDFTLTISSLQPEDFATYYCQQSDDGFPNFGGGTKVEIK
modifications: Psl0225-Germline VH; Psl0225-Germline VL
[1]
  OPK activity of lead optimized anti-Psl mAbs: enhanced OPK activity

B2: Psl0337: lead optimized anti-Psl clone; VH SEQ ID NO:295, VL SEQ ID NO:296 (antibody, V domains shown)
VH: B1 VH with M99D, D100W, I101D, E102H, P103K
VL: B1 VL with Q90D, D92S, D93S, G94W, F95P, P96L, N97T
modifications: Psl0337-Germline VH; Psl0337-Germline VL
[1]
  OPK activity of lead optimized anti-Psl mAbs: enhanced OPK activity

B3: Psl0588: lead optimized anti-Psl clone; VH SEQ ID NO:292, VL SEQ ID NO:293 (antibody, V domains shown)
VH: B1 VH with M99D, I101P, E102F, H104G, A105Y
VL: B1 VL with D93T, G94F, F95P, P96L, N97K
modifications: Psl0588-Germline VH
[1]
  OPK activity of lead optimized anti-Psl mAbs: enhanced OPK activity

B4: V2L2: anti-PcrV monoclonal antibody; VH SEQ ID NO:216, VL SEQ ID NO:217 (antibody, V domains shown)
VH: EMQLLESGGGLVQPGGSLRLSCAASGFTFSSYAMNWVRQAPGEGLEWVSAITISGITAYYTDSVKGRFTISRDNSKNTLYLQMNSLRAGDTAVYYCAKEEFLPGTHYYYGMDVWGQGTTVTVSS
VL: AIQMTQSPSSLSASVGDRVTITCRASQGIRNDLGWYQQKPGKAPKLVIYSASTLQSGVPSRFSGSGSGTDFTLSISSLQPDDFATYYCLQDYNYPWTFGQGTKVEIK
modifications: V2L2 VH; V2L2 VL
[2]; 6206, Bs3-V2L2 0.28 mg/kg, V2L2 0.2 mg/kg, monitored 120 hours, FIG. 21A
  survival: survived
[2]; 6294 and PA103A, 0.04-5 mg/kg, FIG. 13I
  protection against additional strains: protects against additional Pseudomonas strains (i.e., 6294 and PA103A)
[2]; increasing concentrations 24 hours before infection, strains 6077, 6294, PA103A, FIG. 13A-D
  survival: dose-dependent effect on improved survival even out to 168 hours post-infection
[2]; similar doses, strains 6077 and 6294, FIG. 13A-B
  protection compared to mAb166: significantly more potent protection than mAb166 at similar doses
[2]
  protection in vivo: provides protection in vivo
[3]; 6206 (O11-ExoU+) 5.25×10^5 cfu, V2L2 0.1 mg/kg, W4-RAD 0.5 mg/kg, FIG. 15
  organ burden: effective in lowering organ burden
[3]; strain 6206, similar doses, FIG. 14B
  reduction in organ CFU compared to mAb166: significantly greater reduction in organ CFU than mAb166 at similar doses
[3]; [6]
  clearance in the kidney: little effect on clearance in the kidney
  dissemination to lung and spleen: greatly reduced dissemination to both the lung and spleen in a dose-dependent manner
[4]; [7]
  Inflammatory Infiltrate: PMN 3+
  Involved Lung Surface Area: 55%
  Overall Impression: Broncho interstitial pneumonia
[4]; Table 6A, BALB/c mice, strain 6294 1.33×10^7 CFU, 0.2 mg/kg (combination 0.1 mg/kg ea)
  Overall Impression: Broncho interstitial pneumonia
[4]; [8]
  Bacteria: Neg-1+
  Hemorrhage (extent): Extensive
  Inflammatory Infiltrate: PMN 3+
  Involved Lung Surface Area: (57%), mild epithelial injury,
[4]; Table 6B, BALB/c mice, strain 6294 1.7×10^7 CFU, 0.2 mg/kg (combination 0.1 mg/kg ea)
  Overall Impression: Broncho interstitial pneumonia
[4]; [9]
  Bacteria: Neg
  Inflammatory Infiltrate: PMN 2+
  Involved Lung Surface Area: (30%), mild epithelial injury,
[4]; Table 7, BALB/c mice, strain 6206 9.25×10^5 CFU, 0.2 mg/kg (combination 0.1 mg/kg ea)
  Overall Impression: Broncho interstitial pneumonia
[4]; [10]
  Inflammatory Infiltrate: PMN 2-3+
  Involved Lung Surface Area: (40%), mild epithelial injury,
[5]; FIG. 12F
  potency in prevention of RBC lysis, V2L2 vs 29D2: more potent in prevention of RBC lysis than the 29D2

B5: V2L2-GL: V2L2-germlined mAb (antibody, V domains shown)
VH: B4 VH with M2V, E43K, G89E
VL: B4 VL
modifications: V2L2-GL VH; V2L2-MD and V2L2-GL VL
notes: V2L2-germlined mAb
[5]
  prevention of RBC lysis: demonstrated prevention of RBC lysis

B6: 29D2: anti-PcrV mAb, epitope class 3 (antibody, V domains shown)
VH: EVQLLESGGGLVQPGGSLRLSCAASGFTFSSYAMSWVRQAPGKGLEWVSAISGSGYSTYYADSVKGRFTMSRDNSKNTLYLQMNSLRAEDTAVYYCAAEYSISSNYYYGMDVWGQGTTVTVSS
VL: DIQLTQSPSFLSASVGDRVTITCWASQGISSYLAWYQQKPGKAPKLLIYAASTLQSGVPSRFSGSGSGTEFTLTISSLQPEDFATYYCQQLNSSPLTFGGGTKVEIK
modifications: 29D2 VH; 29D2 VL
[2]
  protection in vivo: provides protection in vivo
[5]
  prevention of RBC lysis: demonstrated prevention of RBC lysis
